In PMC3062594, “Intermolecular masking of the HIV-1 Rev NLS by the cellular protein HIC: Novel insights into the regulation of Rev nuclear import” (Retrovirology, 2011):

Biological target: T1, recombinant 6×His-HIC (Human I-mfa domain-Containing protein) (human, UniProt Q9P1T7-2 1-246)
T1 construct: also called 6xHis-HIC; 6ΧHis HIC; source: recombinant, purified; produced as described previously [25]; not shown: 6xHis, N-terminal, kept
T1 sequence (looked up): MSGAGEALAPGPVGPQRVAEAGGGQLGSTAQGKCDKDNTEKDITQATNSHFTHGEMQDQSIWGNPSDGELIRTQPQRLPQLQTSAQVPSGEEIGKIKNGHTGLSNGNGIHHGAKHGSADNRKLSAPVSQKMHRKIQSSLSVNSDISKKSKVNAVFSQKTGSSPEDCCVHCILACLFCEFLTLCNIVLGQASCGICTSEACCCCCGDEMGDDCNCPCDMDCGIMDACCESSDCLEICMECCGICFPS
Assay: pull-down
Settings: both partners purified

B1: GST-YFP-RevNLS (aa35-46) (domain or fragment)
chain: RQARRNRRRRWR
notes: source: recombinant GST fusion protein, purified; produced as described previously; not shown: GST, N-terminal, kept; YFP, N-terminal, kept
binding result: binds
